Tests used:
[1] = molecular target: biotinylated maltose binding protein (MBP-AviTag fusion, Avidity, LLC) [MBP: P0AEX9]; assay: affinity column, elution with 5 mM d-biotin
[2] = molecular target: biotinylated maltose binding protein (MBP-AviTag fusion, Avidity, LLC) [MBP: P0AEX9]; assay: SPR (BIAcoreX), biotinylated MBP-AviTag as immobilised ligand
[3] = molecular target: biotinylated maltose binding protein (MBP-AviTag fusion, Avidity, LLC) [MBP: P0AEX9]; assay: SPR, biotinylated MBP row of Table 2; footnote: value determined by the surface plasmon resonance method described in Qureshi and Wong (2002)

Chain of wild-type streptavidin (P22629 25-183 limits assumed): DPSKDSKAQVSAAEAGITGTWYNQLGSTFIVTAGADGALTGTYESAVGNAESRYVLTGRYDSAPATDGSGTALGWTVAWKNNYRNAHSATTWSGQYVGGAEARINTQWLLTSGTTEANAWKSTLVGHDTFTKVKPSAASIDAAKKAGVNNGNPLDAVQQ

In the case of “streptavidin mutein SBPM18 (S27A, G48T) (designed binder)”, the recovery from affinity column [1] is reported as 90%, the Kd [2] is reported as 0.0115 µM and the koff [2] is reported as 0.00265 s⁻¹. It also gave a kon [2] of 230000 M⁻¹ s⁻¹.

Substance “wild-type streptavidin (from UniProt P22629 25-183)” has a kon [3] of 5.13e+06 M⁻¹ s⁻¹.

Source: US20140378657A1
